The target in this experiment is NC-Fc. Put plainly: ELISA, coated protein 1 ug/mL; antibody concentration not stated.

B1: chimeric anti-PD-1 antibody 21G8F11 (antibody, V domains shown)
VH: EVQLLESGGGLAQPGGSLRLSCAASGFSFNTYLMHWVRQAPGKGLEWVSAISGGGGNTYYADSVKGRFTISRDNSKNTLYLQMNSLRAEDTAVYYCAKENRIPVAPFDYWGQGTLVTVSS
VL: DIQMTQSPSTLSASVGDRVTITCRASQSISTWLAWYQQKPGKAPKLLIYKASSLESGVPSRFSGSGSGTEFTLTISSLQPDDLATYYCQQYNSFSWTFGQGTKVEIK
With B1, the OD450 nm came out at 0.161.

B2: chimeric anti-PD-1 antibody 76G5B3 (antibody, V domains shown)
VH: QVQLVESGGGVVQPGRSLRLSCAASGFTFSDYGFHWVRQAPGKGLEWVAVIWYDGSNEYYTDSVKGRFTISRDNSKNTLYLQMNSLRAEDTAMYFCVVNPFDYWGQGTLVTVSS
VL: DIQMTQSPSSLSAFVGDRVTITCRASQGINHYLAWYQQKPGKAPNLLILAASTLLSGVPSRFGGRGSGTDFTLIISSLQPEDVATYYCQKYDSAPYTFGQGTKLEIK
In the case of B2, the OD450 nm is 0.268.
